Assay [1] has as its target T1, truncated peptide KPGVISVMG
T1 peptide: KPGVISVMG
Kind of assay: competitive ELISA, serial 2-fold dilutions of peptide.

Assay [2] concerns the target T2, elongated peptide KPGVISVMGTA
T2 peptide: KPGVISVMGTA
The assay is described as above.

Assay [3] deals with T3, standard peptide KPGVISVMGT (last 10 amino acids of the type VI collagen α3 chain, 3168-3177).
T3 construct: also called STD peptide; immunogenic peptide
T3 peptide: KPGVISVMGT
Kind of assay: competitive ELISA, peptide specificity test. On the technique in general: An ELISA detects its analyte on a solid surface through an enzyme-linked reagent.

B1: monoclonal antibody 10A3 (antibody, mouse IgG1, kappa, V domains shown)
VH: EVQLQQSGPVMVKPGTSVKTSCKASGYTFTDFNMNWVKQSHGKSLEWIGAINPHNGATSYNQKFSGKATLTVDKSSSTAYMELNSLTSDDSAVYYCARWGNGKNSWGQGTTLTVSS
VL: DVVMTQTPLSLPVNLGDQASISCRSSQRIVHSNGITFLEWYLQKPGQSPKLLIYRVSNRFSGVPDRFSGSGSGTDFTLKISRVEAEDLGLYYCFQGSHVPLTFGAGTRLELKR
notes: Mouse IgG1/kappa from hybridoma; also called the chosen antibody; HRP conjugated monoclonal antibody 10A3
On to B1, for which the binding result is reported as “no binding” in assay [1], “no binding” in assay [2] and “binds” in assay [3].
